Source: patent US6673354B2, “Compositions and methods for treating papillomavirus-infected cells” (priority 1998, dated 2004)
Where no end group is shown, it is not given here.

Key:
[1] = biological target: T1, interaction between HPV16 E1 and E2 (Human papillomavirus type 16, UniProt P03114); assay: In vitro HPV E1-E2 binding assay (co-immunoprecipitation / Western blot), HPV16 E1 and HPV16 E2; conditions: increasing peptide concentrations, FIG. 6A
T1 construct: made in house; host or cells: Hi-Five insect cells infected with recombinant baculovirus (pVL1392); nuclear extracts
T1 sequence (P03114 whole entry, looked up): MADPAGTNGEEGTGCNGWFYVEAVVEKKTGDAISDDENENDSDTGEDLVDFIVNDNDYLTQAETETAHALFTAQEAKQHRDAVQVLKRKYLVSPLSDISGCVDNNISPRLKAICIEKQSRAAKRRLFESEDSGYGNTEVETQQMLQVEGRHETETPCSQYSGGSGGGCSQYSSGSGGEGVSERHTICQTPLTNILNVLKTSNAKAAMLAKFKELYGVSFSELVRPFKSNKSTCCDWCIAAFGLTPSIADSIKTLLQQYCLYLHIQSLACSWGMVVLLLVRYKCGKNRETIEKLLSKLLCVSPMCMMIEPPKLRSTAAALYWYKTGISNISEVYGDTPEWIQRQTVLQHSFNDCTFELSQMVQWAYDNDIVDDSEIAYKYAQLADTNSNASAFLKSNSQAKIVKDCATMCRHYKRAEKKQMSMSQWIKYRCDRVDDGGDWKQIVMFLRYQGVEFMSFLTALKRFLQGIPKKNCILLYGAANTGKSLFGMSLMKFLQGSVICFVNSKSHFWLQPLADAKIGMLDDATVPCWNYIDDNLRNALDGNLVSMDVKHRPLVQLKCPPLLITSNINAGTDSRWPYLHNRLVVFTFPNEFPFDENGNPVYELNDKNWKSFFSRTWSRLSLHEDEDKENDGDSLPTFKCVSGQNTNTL
Method: (§1) In vitro HPV E1-E2 binding assay. 300-500 ng protein from HPV16 or HPV11 EE-E1 expressing recombinant baculovirus infected cell nuclear extracts and 80-120 ng from HPV E2 baculovirus infected cell nuclear extracts were incubated in 500 μl NET-gel buffer (50 mM Tris-HCl pH7.5, 150 mM NaCl, 0.1% NP-40, 1 mM EDTA, 0.25% gelatin) at 4° C. for one hour. 1-2 μg anti-EE monoclonal antibody was added and incubated with shaking at 4° C. for one hour. Immune complexes were precipitated with protein-G agarose beads and washed twice for 30 minutes with ice cold NET-gel buffer. Precipitated proteins were detected by Western blot using appropriate primary antibodies and anti-rabbit IgG HRP or anti-mouse IgG HRP (Amersham). Membranes were blocked for one hour in TNET (10 mM Tris 7.5, 2.5 mM EDTA, 50 mM NaCl, 0.1% Tween-20) containing 4% (w/v) dry milk. Washes and antibody reactions were carried out in TNET, and proteins were visualized by chemiluminescence (Reneaissance ECL, NEN) and autoradiography. Bands were quantitated using the NIH image program.
(§2) Therefore, we reasoned that a peptide encompassing this domain of HPV16 E2 might inhibit interaction between HPV16 E1 and E2, thereby inhibiting HPV16 DNA replication (FIG. 5). In order to test this possibility, HPV16 E2 and epitope tagged full length HPV16 E1 (EE16-E1) proteins were expressed separately using baculovirus vectors. EE-E1 and associated E2 proteins were immunoprecipitated using an anti-EE epitope monoclonal antibody. Precipitated E2 was detected by Western blot using polyclonal antiserum raised to the DNA binding domain of HPV16 E2 (35). As shown in lane 2 of FIG. 6A, E2 co-immunoprecipitated with EE16-E1, but was not precipitated by the EE epitope antibody in the absence of EE16-E1 (lane 1). Peptides encompassing HPV16 E2 amino acids 29-51 (E2N-WP23) or residues 33-47 (E2N-WP15) of HPV16 E2 were then tested for inhibition of E1-E2 interaction. These peptide sequences were derived from the sequence of HPV16 E2, and were based on an alignment of amino terminal residues that are conserved among the papillomavirus E2 proteins (FIG. 5). […] Both the HPV16 E2 protein itself and the E2 derived peptides act specifically in these assays, since the E39A replication defective HPV16 E2 mutant bound only slightly to EE16-E1 (lanes 14). […] These peptides are named E2N-MP23 and E2N-MP15, respectively (see FIG. 5). […] We have previously shown that a domain spanning amino acids 421-647 of the HPV16 E1 carboxy terminus is necessary and sufficient for E2 interaction (45).

[2] = system: in vitro HPV16 DNA replication; assay: In vitro replication of HPV16 DNA (293 cell extract, EE-E1, HPV16 E2); assay type: biochemical; conditions: 40 ng EE-E1 and 6 ng HPV16 E2, FIG. 7
Method: In vitro replication reactions. In vitro replication reactions were essentially as described by Kuo et al. (18) in 25 μl reactions at 37° C. for indicated times. Standard reactions were for 2 hours, and were terminated by addition of 200 μl stop solution (20 mM Tris-HCl pH 7.5, 10 mM EDTA, 0.1% SDS, and 20 μg/ml RNase A). After incubation at 37° C. for 15 minutes, proteinase K was added (200 μg/ml) and incubation was continued 30 minutes. Samples were extracted with 250 μl phenol/chloroform/isoamyl alcohol (25:24:1), ethanol precipitated, washed with 70% ethanol, dried, resuspended in 20-30μl TE, and analyzed on a 0.8% agarose gel (TAE). The agarose gel was dried onto Hybond N+ membrane (Amersham), and replicated DNA was visualized by autoradiography. Bands were quantitated by Phosphorimager analysis. Replication templates were pKS7838-7905 (nt7838-7905/1-130) containing the HPV16 replication origin, and pUC7874-99 containing the HPV11 origin of replication (nt7874-7933/1-99). pUC7874-99 was a generously provided by Dr. Louise Chow.
We sought to establish a system for the study of HPV16 DNA replication in vitro, and to determine whether specific interaction between HPV16 E1 and E2 was required for HPV16 DNA replication in this system. […] As has been documented for other papillomavirus E1 proteins, some replication was observed using relatively large amounts of E1 in the absence of E2 (lanes 2 through 7) (6, 16, 22, 33, 40, 48). […] Replication in this assay is ori-dependent, since the small amount of replication of the pKS plasmid lacking the HPV16 origin detected at high concentrations of EE-E1 (FIG. 3B, lanes 1-6) was not stimulated by E2 (FIG. 1B, lanes 7-12).
Since the E2N-WP23 and E2N-WP 15 peptides could inhibit interaction between […] E1 and E2, their ability to inhibit in vitro HPV16 DNA replication was also tested (FIGS. 7A and 7B).

[3] = biological target: T2, HPV-16 E1-E2 interaction (Human papillomavirus type 16, UniProt P03114); assay: In vitro HPV E1-E2 competition binding assay (HPV-16 EE-E1C and HPV-16 E2); conditions: 10 μM, 20 μM, and 40 μM peptide, FIG. 14
T2 construct: The carboxy terminus of HPV16-E1, from amino acid 424 to 649, is the minimal domain; made in house; host or cells: E2: nuclear extract of baculovirus-infected Hi-Five cells
T2 sequence (P03114 whole entry, looked up): T1 sequence (P03114 whole entry, looked up)
Method: Use of EE-EIC. The carboxy terminus of HPV16-E1, from amino acid 424 to 649, is the minimal domain necessary for interaction with E2 (Yasugi et al. 1997). An epitope tagged form of this domain (EE-EIC) was used in the E1-E2 interaction assays presented here.
In vitro HPV EI-E2 competition binding assay. HPV-16 EE-EIC (240 ng) in 500 1 NET gel buffer (50 mM Tris-HCI [pH 7.5 ], 150 mM NaCl, 0.1% NP-40, 1 mM EDTA, 0.25% gelatin) were pre-incubated with 0 μM, 10 μM, 20 μM, or 40 μM peptide for 10 minutes on ice. The final concentration of DMSO, the peptide solvent, was kept constant in all samples. Nuclear extract containing HPV-16 E2 was then added, and the mixture was incubated with shaking at 4° C. for 1 hour. Anti-EE monoclonal antibody (1 mg/ml) (BAbCo) was added, and the mixture was incubated with shaking for 30 minutes. Immune complexes were precipitated with protein G-agarose beads for an additional 30 minutes at 4° C. The beads were washed with 500 l ice-cold NET-gel buffer three times.

[4] = biological target: T3, interaction between HPV16 E1 and E2 (Human papillomavirus type 16, UniProt P03114); assay: In vitro HPV E1-E2 binding assay (co-immunoprecipitation / Western blot), HPV16 E1 and HPV16 E2
T3 construct: made in house; host or cells: Hi-Five insect cells infected with recombinant baculovirus (pVL1392); nuclear extracts
Method: as §1, §2

[5] = biological target: T4, EE-EIC (epitope tagged carboxy terminal domain of HPV16 E1) (human papillomavirus type 16, UniProt P03114 424-649); assay: in vitro E1-E2 competition binding assay with EE-EIC, 10-40 µM peptide, FIG. 14
T4 construct: range 424-649; limits uncertain; also called HPV-16 EE-EIC; EE-E1C
T4 sequence: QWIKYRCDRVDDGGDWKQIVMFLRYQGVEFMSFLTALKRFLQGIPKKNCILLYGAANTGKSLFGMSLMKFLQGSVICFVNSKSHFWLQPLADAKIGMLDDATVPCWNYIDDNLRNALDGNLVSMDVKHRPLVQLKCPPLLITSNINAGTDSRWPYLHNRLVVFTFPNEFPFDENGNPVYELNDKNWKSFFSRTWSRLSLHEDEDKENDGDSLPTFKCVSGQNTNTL

[6] = biological target: T5, HPV11 EE-E1 (epitope tagged HPV11 E1) (human papillomavirus type 11, UniProt P04014 1-649); assay: co-immunoprecipitation with anti-EE antibody, Western blot for E2
T5 sequence: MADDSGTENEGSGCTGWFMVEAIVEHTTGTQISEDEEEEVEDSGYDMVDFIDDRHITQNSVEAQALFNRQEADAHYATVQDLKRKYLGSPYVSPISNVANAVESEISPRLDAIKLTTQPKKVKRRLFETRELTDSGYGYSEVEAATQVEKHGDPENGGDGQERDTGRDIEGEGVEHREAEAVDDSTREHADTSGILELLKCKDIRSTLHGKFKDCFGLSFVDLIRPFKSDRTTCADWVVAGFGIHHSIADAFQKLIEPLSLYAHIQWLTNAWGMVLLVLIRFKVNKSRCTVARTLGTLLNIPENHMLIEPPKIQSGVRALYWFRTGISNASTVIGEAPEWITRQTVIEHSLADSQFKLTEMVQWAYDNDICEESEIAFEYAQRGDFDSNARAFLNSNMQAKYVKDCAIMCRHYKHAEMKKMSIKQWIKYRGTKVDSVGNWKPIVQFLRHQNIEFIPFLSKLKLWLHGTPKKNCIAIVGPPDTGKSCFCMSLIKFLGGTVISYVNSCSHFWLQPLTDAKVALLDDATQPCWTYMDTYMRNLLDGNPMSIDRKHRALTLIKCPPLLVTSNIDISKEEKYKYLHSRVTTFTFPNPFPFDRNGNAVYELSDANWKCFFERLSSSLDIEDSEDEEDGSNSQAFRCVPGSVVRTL

[7] = biological target: T6, epitope tagged full length HPV16 E1 (EE16-E1) (human papillomavirus type 16, UniProt P03114 1-649); assay: inhibition of HPV16 E1-E2 co-immunoprecipitation by peptide; competitor HPV16 E2
T6 construct: range 1-649; also called EE-E1; HPV16 EE-E1
T6 sequence: T1 sequence (P03114 whole entry, looked up)

E2N-MP23: 23-mer peptide of HPV16 E2 aa 29-51 containing alanine at the position analogous to E39 (HIDYWKHMRLACAIYYKAREMGF; UniProt P03120 29-51, looked up, variant E39A)
inhibition of HPV16 E1-E2 interaction [1]: did not inhibit E1-E2 interaction at concentrations at which the wild type peptide could do so
inhibition of in vitro HPV16 DNA replication [2]: wild type peptides inhibited replication much more effectively than the respective E39A substituted analog

ERQIKIWFQNRRMKWKKGGWKHMRLECAIYYKAR [Ant-WP]
inhibition of HPV-16 E1-E2 interaction (E1-E2 complex formation) [3]: comparable to that of wild-type peptide

GRKKRRQRRRPPQCGGWKHMRLECAIYYKAR (cysteine pairing not given here) [Tat-WP]
inhibition of HPV-16 E1-E2 interaction (E1-E2 complex formation) [3]: not inhibited

HIDYWKHMRLECAIYYKAREMGF [E2N-WP23]
inhibition of HPV16 E1-E2 interaction ([4]; increasing peptide concentrations, FIG. 6A): inhibitory effects
mode of inhibition of E1-E2 interaction ([4]; inhibition plotted as a function of substrate concentration (data not shown)): competitive inhibition
inhibition of in vitro HPV16 DNA replication [2]: could effectively inhibit in vitro replication

ERQIKIWFQNRRMKWKKGGWKHMRLECAIYYKAR (also called Antennapedia fusion peptide) [Ant-WP (Drosophila Antennapedia aa 42-58, Gly-Gly spacer, WP15)]
binding result [5]: binds

B1: HPV16 E2 E39A mutant (other)
chain: METLCQRLNVCQDKILTHYENDSTDLRDHIDYWKHMRLACAIYYKAREMGFKHINHQVVPTLAVSKNKALQAIELQLTLETIYNSQYSNEKWTLQDVSLEVYLTAPTGCIKKHGYTVEVQFDGDICNTMHYTNWTHIYICEEASVTVVEGQVDYYGLYYVHEGIRTYFVQFKDDAEKYSKNKVWEVHAGGQVILCPTSVFSSNEVSSPEIIRQHLANHPAATHTKAVALGTEETQTTIQRPRSEPDTGNPCHTTKLLHRDSVDSAPILTAFNSSHKGRINCNSNTTPIVHLKGDANTLKCLRYRFKKHCTLYTAVSSTWHWTGHNVKHKSAIVTLTYDSEWQRDQFLSQVKIPKTITVSTGFMSI
notes: also called E39A replication defective HPV16 E2 mutant
binding result [6]: no binding

WKHMRLECAIYYKAR (also called 15-mer; wild-type peptide) [E2N-WP15 (peptide of HPV16 E2 residues 33-47)]
IC50 [7]: 7.5 µM

HIDYWKHMRLECAIYYKAREMGF (also called 23-mer) [E2N-WP23 (peptide of HPV16 E2 amino acids 29-51)]
IC50 [7]: 5 µM
